Measured values taken from FireProtDB (doi:10.1016/0022-2836(92)90562-x).

Conditions: Bacillus amyloliquefaciens; pH 6.3; 25 °C; Urea; Fluorescence; MES-NaOH 450 mM; reversible: yes; whole UniProt chain shown

B1: Ribonuclease wild type, P00648 (protein)
chain: MMKMEGIALKKRLSWISVCLLVLVSAAGMLFSTAAKTETSSHKAHTEAQVINTFDGVADYLQTYHKLPDNYITKSEAQALGWVASKGNLADVAPGKSIGGDIFSNREGKLPGKSGRTWREADINYTSGFRNSDRILYSSDWLIYKTTDHYQTFTKIR
  denaturant m value: 1.93 kcal/mol/M
  denaturant midpoint (higher = more stable): 4.57 M
  unfolding free energy: 8.82 kcal/mol
